Measurements: patent publication US20040219514A1, “Caml-binding peptides” (priority 2000, published 2004)

What was measured:
CAML = target: T1, CAML (Homo sapiens, UniProt P49069); conditions: published reports on human TACI fragments; cited from earlier work
T1 sequence (P49069 1-296): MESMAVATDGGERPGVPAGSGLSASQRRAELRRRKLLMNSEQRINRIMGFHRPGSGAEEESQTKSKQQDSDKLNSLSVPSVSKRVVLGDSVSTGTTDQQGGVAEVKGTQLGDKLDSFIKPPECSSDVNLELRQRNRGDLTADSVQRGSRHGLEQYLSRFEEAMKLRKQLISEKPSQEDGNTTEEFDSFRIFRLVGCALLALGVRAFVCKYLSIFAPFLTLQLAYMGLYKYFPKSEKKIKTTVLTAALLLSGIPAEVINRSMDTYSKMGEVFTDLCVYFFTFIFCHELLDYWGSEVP

U937 cells [1] = experiment: Arachidonic acid release assay; assay type: cell-based, human
Description: (§1) Generation of stable U937 cell lines expressing E3/6.7K U937 human histiocytic lymphoma cells obtained from ATCC (CRL 1593) were maintained in RPMI 1640, 10% FCS, 2 mM L-glutamine, 10 mM HEPES, 100 U/ml penicillin and 100 μg/ml streptomycin in an atmosphere of 5% CO2 and 100% humidity. Cells were transfected with the appropriate construct by using the DMRIE-C cationic lipid reagent available from Life Technologies using the manufacturer's protocol. Transfected cells were maintained in medium containing geneticin G-418 sulphate at a final concentration of 800 μg/ml. Media and supplements were purchased from Life Technologies. Subclones of the transfected cell lines were generated by serial dilution and examined for expression of E3/6.7K by Northern Blotting. The expression of E3/6.7K mRNA was very similar in all the clones examined. All the G-418 resistant cells that survived the selection procedure were pooled and used for the in vitro assays, in order to avoid clonal variations known to arise in U937 cells.
Arachidonic acid release assays. […] After 20 hours of treatment the cells were centrifuged and 100 μl of supernatant out of 500 μl total was mixed with 3 ml scintillation fluid and counted. […] The counts per minute of released [3H] arachidonic acid were expressed as a percentage of the average of total incorporated [3H] arachidonic acid.

U937 cells [2] = experiment: Annexin V-FACS apoptosis assay; assay type: cell-based, human
Description: as §1
Annexin V-FACS apoptosis assay. Annexin V-FITC (PharMingen) was used to determine the binding of Annexin V to externalized phosphatidyl serine. […] One sample of cells was not stained and used to set up the baseline fluorescence. The cells were examined with a fluorescence-activated cell sorter SACS) on a Beckton Dickson FACS Analyzer.

[3] = target: T2, amino acids 1 to 201 of CAML (Homo sapiens, UniProt P49069); experiment: Yeast two-hybrid interaction; assay type: binding
T2 construct: subdloning amino acids 1 to 201 of CAML in frame; expressed in transfected cells; host or cells: Saccharomyces cerevisiae AH109
T2 sequence (P49069 1-201): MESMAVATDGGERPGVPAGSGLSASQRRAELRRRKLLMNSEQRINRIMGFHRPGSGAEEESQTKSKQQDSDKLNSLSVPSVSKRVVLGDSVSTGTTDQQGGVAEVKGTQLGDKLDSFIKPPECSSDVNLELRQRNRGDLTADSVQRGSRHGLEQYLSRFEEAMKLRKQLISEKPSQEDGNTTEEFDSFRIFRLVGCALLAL
Description: (§2) pBD-6.7, a bait vector containing E3/6.7, was constructed by subdloning full length E3/6.7K cDNA in frame into the C terminus of the GAL4 DNA binding domain of vector pGBKT7 (CLONTECH). pAD-CAML was constructed by subcloning full length CAML in frame into the C terminus of the GAL4 activation domain of the prey vector pGADT7 (CLONTECH). pAD-CAML(201) was constructed by subdloning amino acids 1 to 201 of CAML in frame into the C terminus of the GAl4 activation domain of the prey vector pGADT7. The fidelity of the constructs was confirmed by sequencing.
(§3) Yeast Transformation and Selection. p]3D-6.7 and pAD-CAML or pAD-CAML(201) were transformed together into Saccharomyces cerevisiae AH109 using the Lithium Acetate Yeast Transformation procedure as described by Gietz, D., et al. (1992) Nucleic Acids Res., 20:1425. Control cotransformation of p3D-53 /pAD-T and pBD-Lam/pAD-T were also done. pBD-53/pAD-T encode fusions between the GAL4 DNA-BD and AD and murine p53 and SV40 large T-antigen, respectively. p53 and large T-antigen interact in a yeast two-hybrid assay. pBD-Lam encodes a fusion of the DNA-BD with human lamin C and provides a negative control for an interaction with pAD-T. For yeast selection, pBD containing the […] gene was selected on synthetic drop out media lacking tryptophan (SD-T). pAD contains the LEU2 gene and was selected for on SD-L (leucine).
(§4) CAML-Binding with SED. The yeast two hybrid system takes advantage of the GAL4 transcriptional activator which consists of two separable and functionally essential domains: a DNA binding domain and a domain that activates transcription. A bait gene (fragments of the E3/6.7K gene) was expressed as a fusion to the GAL4 DNA-binding domain (ED), while a prey gene (CAML) was expressed as a fusion to the GAL4 activation domain (AD). When bait and prey fusion proteins interact, the BD and AD are brought into proximity, thus activating transcription of reporter genes.

full length CAML [4] = target: T3, full length CAML (Homo sapiens, UniProt P49069); experiment: Yeast two-hybrid interaction; assay type: binding
T3 construct: expressed in transfected cells; host or cells: Saccharomyces cerevisiae AH109
T3 sequence (P49069 1-296): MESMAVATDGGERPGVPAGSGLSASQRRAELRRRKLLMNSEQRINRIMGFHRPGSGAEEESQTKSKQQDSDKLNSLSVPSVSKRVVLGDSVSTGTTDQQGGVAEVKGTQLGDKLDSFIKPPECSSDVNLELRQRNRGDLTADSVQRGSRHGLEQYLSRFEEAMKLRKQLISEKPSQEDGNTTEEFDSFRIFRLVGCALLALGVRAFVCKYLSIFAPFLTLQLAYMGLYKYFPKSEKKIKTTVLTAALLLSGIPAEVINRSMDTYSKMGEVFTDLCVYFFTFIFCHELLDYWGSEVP
Description: as §2, §3, §4

full length CAML [5] = target: T4, full length CAML (Mus musculus, UniProt P49070); experiment: Yeast two-hybrid interaction; assay type: binding; conditions: GAL4 bait/prey
T4 construct: expressed in transfected cells; host or cells: Saccharomyces cerevisiae AH109
T4 sequence (P49070 1-294): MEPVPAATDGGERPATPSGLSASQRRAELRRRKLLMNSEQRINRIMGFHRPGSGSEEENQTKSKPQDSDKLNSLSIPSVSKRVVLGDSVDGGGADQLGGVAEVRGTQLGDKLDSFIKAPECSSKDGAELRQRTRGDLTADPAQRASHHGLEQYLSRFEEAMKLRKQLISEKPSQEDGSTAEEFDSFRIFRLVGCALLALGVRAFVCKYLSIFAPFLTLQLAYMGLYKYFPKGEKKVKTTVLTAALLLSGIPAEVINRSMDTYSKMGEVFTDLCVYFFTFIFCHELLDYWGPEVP
Description: as §2, §3, §4

calcium ions from the ER = experiment: Efflux of calcium ions from the ER; assay type: cell-based; conditions: in the presence of E3/6.7K

B1: amino acids 1-212: fragment of human TACI, amino acids 1-212 (protein, UniProt O14836 1-212, looked up, fragment)
chain: MSGLGRSRRGGRSRVDQEERFPQGLWTGVAMRSCPEEQYWDPLLGTCMSCKTICNHQSQRTCAAFCRSLSCRKEQGKFYDHLLRDCISCASICGQHPKQCAYFCENKLRSPVNLPPELRRQRSGEVENNSDNSGRYQGLEHRGSEASPALPGLKLSADQVALVYSTLGLCLCAVLCCFLVAVACFLKKRGDPCSCQPRSRPRQSPAKSSQDH
CAML-binding (CAML): capable of binding to CAML

B2: amino acids 1-168 of human TACI: fragment of human transmembrane activator and CAML interactor (TACI), amino acids 1-168 (protein, UniProt O14836 1-168, looked up, fragment)
chain: MSGLGRSRRGGRSRVDQEERFPQGLWTGVAMRSCPEEQYWDPLLGTCMSCKTICNHQSQRTCAAFCRSLSCRKEQGKFYDHLLRDCISCASICGQHPKQCAYFCENKLRSPVNLPPELRRQRSGEVENNSDNSGRYQGLEHRGSEASPALPGLKLSADQVALVYSTLG
CAML-binding (CAML): did not occur

B3: 1-233 of human TACI: fragment of human TACI, amino acids 1-233 (protein, UniProt O14836 1-233, looked up, fragment)
chain: MSGLGRSRRGGRSRVDQEERFPQGLWTGVAMRSCPEEQYWDPLLGTCMSCKTICNHQSQRTCAAFCRSLSCRKEQGKFYDHLLRDCISCASICGQHPKQCAYFCENKLRSPVNLPPELRRQRSGEVENNSDNSGRYQGLEHRGSEASPALPGLKLSADQVALVYSTLGLCLCAVLCCFLVAVACFLKKRGDPCSCQPRSRPRQSPAKSSQDHAMEAGSPVSTSPEPVETCSFC
CAML-binding (CAML): capable of binding to CAML

B4: E3/6.7K: 6.7K protein encoded by the adenovirus E3 region; integral membrane protein localized to the endoplasmic reticulum; expressed from transfected Ad2 cDNA (protein)
chain: MSNSSNSTSLSNFSGIGVGVILTLVILFILILALLCLRVAACCTHVCTYCQLFKRWGQHPR
modifications: Adenovirus, Ad2 E3/6.7K
notes: 6.7K protein encoded by the adenovirus E3 region; integral membrane protein localized to the endoplasmic reticulum; expressed from transfected Ad2 cDNA
reduction of release of [3H] arachidonic acid compared to U937neor (U937 cells [1]; U937-E3/6.7K cells, TNF-α and cycloheximide (CHX)): 60% | decrease of [3H] arachidonic acid release compared with U937 cells transfected with vector alone (U937 cells [1]; U937 cells transfected with E3/6.7K cDNA, stimulated with TNF-α): 50% | reduction in apoptosis compared to U937neor (U937 cells [2]; U937-E3/6.7K cells, combination of TNF-α and CHX): 65% | reduction in percentage of apoptotic cells compared with U937neor (U937 cells [2]; cells expressing E3/6.7K, stimulation with TNF-α): 55% | interaction with CAML ([3]; 1-201 residue domain of CAML, GAL4 bait/prey): interacts | growth of yeast on interaction-selective media ([3]; pBD-6.7 and pAD-CAML(201) in S. cerevisiae AH109, SD-LTHX or SD-AHLTX): able to grow on both SD-LTHX or SD-AHLTX | interaction with CAML (full length CAML [4]; full length human CAML, GAL4 bait/prey): interacts | growth of yeast on interaction-selective media (full length CAML [4]; pBD-6.7 and pAD-CAML in S. cerevisiae AH109, SD-LTHX or SD-AHLTX): able to grow on both SD-LTHX or SD-AHLTX | interaction with CAML (full length CAML [5]): interacts | efflux of calcium ions from the ER (calcium ions from the ER): reduced
